Where two headings read alike, the source gives them in different places. Each block holds one molecule with its values, some of them ahead of it. Non-standard residues stand in square brackets, D forms with d. No end group written: not given here. Lys(Me3) = C[N+](C)(C)CCCC[C@H](N)C(=O)O
How the values were obtained:
Assay in all cases: ITC
[1] = molecular target: DIDO1 (death inducer obliterator 1) PHD domain, wild type
BPTF PHD domain Y23M [2] = molecular target: BPTF PHD domain Y23M
[3] = molecular target: TAF3 PHD domain M900Q/M907Q (the paper's wild-type construct) (UniProt Q5VWG9)
[4] = molecular target: TAF3 PHD domain M900Q/M907Q with selenomethionine in place of M882 (SeMet mutant) (UniProt Q5VWG9)
[5] = molecular target: TAF3 PHD domain M900Q/M907Q with norleucine in place of M882 (Nle mutant) (UniProt Q5VWG9)
DIDO1 PHD domain M35C = DIDO1 PHD domain M35C (UniProt Q9BTC0)
[6] = molecular target: TAF3 PHD domain M900Q/M907Q (the paper's wild-type construct) (UniProt Q5VWG9); remark: listed apart in the source
BPTF PHD domain Y23M [7] = molecular target: BPTF PHD domain Y23M; remark: listed apart in the source
[8] = molecular target: TAF3 PHD domain M900Q/M907Q with selenomethionine in place of M882 (SeMet mutant) (UniProt Q5VWG9); remark: listed apart in the source
[9] = molecular target: DIDO1 PHD domain with selenomethionine in place of methionine (SeMet mutant) (UniProt Q9BTC0)
TAF3 PHD domain M882A = TAF3 PHD domain M882A (UniProt Q5VWG9)
[10] = molecular target: TAF3 PHD domain M900Q/M907Q with norleucine in place of M882 (Nle mutant) (UniProt Q5VWG9); remark: listed apart in the source
[11] = molecular target: T1, DIDO1 (death inducer obliterator 1) PHD domain, wild type (UniProt Q9BTC0 266-325)
T1 sequence: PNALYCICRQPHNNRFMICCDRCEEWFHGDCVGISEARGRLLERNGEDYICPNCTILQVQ

Molecule: histone H3 tail peptide with tert-butyl norleucine in place of K4me3 (H3K4tBuNle), ARTX… with X = tBuNle
Kd [3]: 10.7 µM
Kd [4]: 8.3 µM
Kd [5]: 13.7 µM

B2: histone H3 tail peptide trimethylated at K4 (H3K4me3), ARTXQTARKSTGGY with X = Kme3 (peptide)
peptide: ART[Lys(Me3)]QTARKSTGGY
Kd [11]: 2.28 µM

Second part, led by results:

Kd (BPTF PHD domain Y23M [2]): 7.48 µM
Molecule: Histone H3 peptide with tert-butyl norleucine in place of K4 (H3K4tBuNle 1-13, with a C-terminal Tyr)
Kd [1]: 2.9 µM

Kd (DIDO1 PHD domain M35C): 36 µM
Kd [6]: 1.05 µM
Kd (BPTF PHD domain Y23M [7]): 7.5 µM
Kd [8]: 0.84 µM
Kd [9]: 4.2 µM
Kd (TAF3 PHD domain M882A): 120 µM
Kd [10]: 1.7 µM
B1: histone H3 tail peptide trimethylated at K4 (H3K4me3), ARTX… with X = Kme3 (peptide)
peptide: ART[Lys(Me3)]QTARKSTGGY

Source: publication PMC8246079 (Chemical Science, 2021)
